B1: GluA2i: N385D (protein)
parent chain: MQKIMHISVLLSPVLWGLIFGVSSNSIQIGGLFPRGADQEYSAFRVGMVQFSTSEFRLTPHIDNLEVANSFAVTNAFCSQFSRGVYAIFGFYDKKSVNTITSFCGTLHVSFITPSFPTDGTHPFVIQMRPDLKGALLSLIEYYQWDKFAYLYDSDRGLSTLQAVLDSAAEKKWQVTAINVGNINNDKKDETYRSLFQDLELKKERRVILDCERDKVNDIVDQVITIGKHVKGYHYIIANLGFTDGDLLKIQFGGANVSGFQIVDYDDSLVSKFIERWSTLEEKEYPGAHTATIKYTSALTYDAVQVMTEAFRNLRKQRIEISRRGNAGDCLANPAVPWGQGVEIERALKQVQVEGLSGNIKFDQNGKRINYTINIMELKTNGPRKIGYWSEVDKMVVTLTELPSGNDTSGLENKTVVVTTILESPYVMMKKNHEMLEGNERYEGYCVDLAAEIAKHCGFKYKLTIVGDGKYGARDADTKIWNGMVGELVYGKADIAIAPLTITLVREEVIDFSKPFMSLGISIMIKKPQKSKPGVFSFLDPLAYEIWMCIVFAYIGVSVVLFLVSRFSPYEWHTEEFEDGRETQSSESTNEFGIFNSLWFSLGAFMQQGCDISPRSLSGRIVGGVWWFFTLIIISSYTANLAAFLTVERMVSPIESAEDLSKQTEIAYGTLDSGSTKEFFRRSKIAVFDKMWTYMRSAEPSVFVRTTAEGVARVRKSKGKYAYLLESTMNEYIEQRKPCDTMKVGGNLDSKGYGIATPKGSSLGTPVNLAVLKLSEQGVLDKLKNKWWYDKGECGAKDSGSKEKTSALSLSNVAGVFYILVGGLGLAMLVALIEFCYKSRAEAKRMKVAKNPQNINPSSSQNSQNFATYKEGYNVYGIESVKI
B2: GluA2i: N392Q (protein)
parent chain: B1 parent chain

Key:
[1] = outside-out patch, steady state-to-peak ratio; settings: glycan lost; control: GluA2i WT + γ-2
[2] = outside-out patch, 10 mM glutamate, τw,des; settings: glycan lost; control: GluA2i WT + γ-2

Protein	other: steady-state channel current [1]	other: channel desensitisation kinetics [2]
B1	increases	no change
B2	increases	no change

— publication PMC4405707
